Measured values published in article PMC8301817, “Phylogenetic Diversity of Lhr Proteins and Biochemical Activities of the Thermococcales aLhr2 DNA/RNA Helicase”.

T1: Tbar-aLhr2-ΔDom4 (Thermococcus barophilus, UniProt F0LJX3 1-513)
T1 sequence: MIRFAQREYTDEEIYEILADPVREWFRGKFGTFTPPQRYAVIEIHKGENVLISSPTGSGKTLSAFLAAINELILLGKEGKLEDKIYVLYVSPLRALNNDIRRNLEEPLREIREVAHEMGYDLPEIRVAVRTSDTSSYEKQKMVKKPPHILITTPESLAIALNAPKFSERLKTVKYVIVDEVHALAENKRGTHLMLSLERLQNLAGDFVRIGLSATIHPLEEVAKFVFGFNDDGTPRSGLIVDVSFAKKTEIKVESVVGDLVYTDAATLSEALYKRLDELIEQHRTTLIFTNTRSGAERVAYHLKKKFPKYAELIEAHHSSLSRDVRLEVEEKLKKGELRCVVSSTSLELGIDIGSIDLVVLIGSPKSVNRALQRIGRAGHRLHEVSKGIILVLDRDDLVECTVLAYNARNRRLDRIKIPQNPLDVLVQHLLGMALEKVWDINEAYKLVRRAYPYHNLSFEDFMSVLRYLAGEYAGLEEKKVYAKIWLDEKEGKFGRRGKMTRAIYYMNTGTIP

T2: Tbar-aLhr2 WT (Thermococcus barophilus, UniProt F0LJX3 1-863)
T2 sequence: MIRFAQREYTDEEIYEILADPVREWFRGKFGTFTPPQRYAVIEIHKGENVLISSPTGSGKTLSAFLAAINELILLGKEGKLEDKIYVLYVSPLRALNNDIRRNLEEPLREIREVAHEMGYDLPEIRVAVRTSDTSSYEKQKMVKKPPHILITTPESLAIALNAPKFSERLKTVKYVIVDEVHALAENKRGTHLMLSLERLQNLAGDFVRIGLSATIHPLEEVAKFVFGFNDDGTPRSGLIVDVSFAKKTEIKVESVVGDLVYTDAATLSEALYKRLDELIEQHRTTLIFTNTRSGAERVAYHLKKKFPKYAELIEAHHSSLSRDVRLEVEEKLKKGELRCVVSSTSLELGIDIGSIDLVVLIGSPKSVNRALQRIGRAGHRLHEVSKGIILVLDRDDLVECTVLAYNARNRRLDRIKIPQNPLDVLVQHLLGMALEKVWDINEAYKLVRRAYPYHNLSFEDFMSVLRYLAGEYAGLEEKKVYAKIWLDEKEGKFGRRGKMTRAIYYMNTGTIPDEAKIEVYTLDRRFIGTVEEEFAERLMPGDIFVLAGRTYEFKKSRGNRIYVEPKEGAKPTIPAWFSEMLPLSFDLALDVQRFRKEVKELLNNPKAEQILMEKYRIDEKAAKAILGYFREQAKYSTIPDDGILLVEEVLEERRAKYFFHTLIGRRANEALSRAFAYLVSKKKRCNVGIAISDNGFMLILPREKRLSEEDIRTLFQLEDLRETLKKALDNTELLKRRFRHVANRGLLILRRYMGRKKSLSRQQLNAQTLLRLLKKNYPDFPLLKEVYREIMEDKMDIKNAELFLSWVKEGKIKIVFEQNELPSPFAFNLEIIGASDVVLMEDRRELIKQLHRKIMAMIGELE

T3: Tbar-aLhr2-Dom4 (Thermococcus barophilus, UniProt F0LJX3 514-863)
T3 sequence: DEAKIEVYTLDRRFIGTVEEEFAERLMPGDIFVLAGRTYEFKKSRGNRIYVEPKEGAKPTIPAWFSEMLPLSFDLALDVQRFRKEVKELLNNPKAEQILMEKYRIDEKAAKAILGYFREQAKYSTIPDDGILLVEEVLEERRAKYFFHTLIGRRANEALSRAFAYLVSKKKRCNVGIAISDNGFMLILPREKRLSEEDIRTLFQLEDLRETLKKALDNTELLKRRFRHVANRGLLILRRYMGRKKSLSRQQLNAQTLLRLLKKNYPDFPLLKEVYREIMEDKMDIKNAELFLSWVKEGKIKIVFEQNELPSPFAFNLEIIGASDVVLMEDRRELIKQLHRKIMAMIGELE

T4: Paby-Hel308 (Pyrococcus abyssi, UniProt Q9V0A9 1-715)
T4 sequence: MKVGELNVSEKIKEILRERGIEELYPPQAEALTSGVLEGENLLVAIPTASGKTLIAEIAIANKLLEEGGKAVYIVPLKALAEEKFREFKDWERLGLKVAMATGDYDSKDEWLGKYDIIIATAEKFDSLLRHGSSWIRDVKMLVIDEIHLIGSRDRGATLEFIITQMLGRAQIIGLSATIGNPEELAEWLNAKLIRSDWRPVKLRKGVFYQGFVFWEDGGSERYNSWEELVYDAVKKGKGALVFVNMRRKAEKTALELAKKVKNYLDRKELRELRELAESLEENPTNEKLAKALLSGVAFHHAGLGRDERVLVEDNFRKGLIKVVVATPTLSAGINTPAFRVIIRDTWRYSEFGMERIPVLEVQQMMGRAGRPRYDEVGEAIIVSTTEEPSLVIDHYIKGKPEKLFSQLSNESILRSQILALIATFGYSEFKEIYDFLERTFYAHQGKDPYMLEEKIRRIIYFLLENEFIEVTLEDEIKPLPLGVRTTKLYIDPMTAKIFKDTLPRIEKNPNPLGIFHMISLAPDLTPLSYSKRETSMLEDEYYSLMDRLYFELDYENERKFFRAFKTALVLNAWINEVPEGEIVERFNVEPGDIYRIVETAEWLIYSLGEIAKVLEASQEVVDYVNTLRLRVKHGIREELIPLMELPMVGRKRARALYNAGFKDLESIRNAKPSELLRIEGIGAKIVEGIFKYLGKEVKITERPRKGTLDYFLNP


Tests used:
Experiment in all cases: filter binding; 5 mM Mg2+; 25 mM Tris-HCl pH 8, 50 mM NaAc, 5 mM MgCl2, 2.5 mM beta-mercaptoethanol; protein preincubated 10 min 65 C, binding 15 min 30 C; 0.5 nM substrate (Methods); Resu
Tbar-aLhr2-ΔDom4 = molecular target: T1, Tbar-aLhr2-ΔDom4; settings: protein: recombinant; tags: untagged; label: 5'-32P; single strand
Tbar-aLhr2 WT = molecular target: T2, Tbar-aLhr2 WT; settings: protein: recombinant, tags: untagged, chain copies: 4
Tbar-aLhr2-Dom4 = molecular target: T3, Tbar-aLhr2-Dom4; settings: protein: recombinant; tags: untagged; label: 5'-32P; single strand
Paby-Hel308 = molecular target: T4, Paby-Hel308; settings: protein: recombinant, tags: untagged
[1] = label: 5'-32P on DNA31, 3' overhang 28 nt

Row | Binder | Kd (Tbar-aLhr2-ΔDom4) [nM] | Kd (Tbar-aLhr2 WT; label: 5'-32P, single strand) [nM] | Kd (Tbar-aLhr2-Dom4) [nM] | Kd (Paby-Hel308; label: 5'-32P, single strand) [nM] | Kd (Tbar-aLhr2 WT; label: 5'-32P on RNA26, 3' overhang 24 nt) [nM] | Kd (Tbar-aLhr2 WT; [1]) [nM] | Kd (Paby-Hel308; [1]) [nM]
1 | GGACATGCTGTCTAGAGACTATCGAT (ssDNA) [DNA26] | 211 ± 9 | 58 ± 2 | 277 ± 16 | – | – | – | –
2 | ACGCUGCCGAAUUCUGGCUUGCUAGG (ssRNA) [RNA26] | 150 ± 1 | 80 ± 2 | 241 ± 17 | – | – | – | –
3 | AUCGAUAGUCUCUAGACAGCAUGUCCUAGCAAGCCAGAAUUCGGCAGCGU (ssRNA) [RNA50] | 69 ± 1 | 41 ± 1 | 161 ± 5 | 38 ± 1 | – | – | –
4 | 3'RNA50:RNA26 (dsRNA) RNA 1: AUCGAUAGUCUCUAGACAGCAUGUCCUAGCAAGCCAGAAUUCGGCAGCGU RNA 2: GGACAUGCUGUCUAGAGACUAUCGAU | – | – | – | – | 39 ± 2 | – | –
5 | 3'DNA59:DNA31 (dsDNA) DNA 1: GACGCTGCCGAATTCTACCAGTGCCTTGCTAGGACATCTTTGCCCACCTGCAGGTTCAC DNA 2: TAGCAAGGCACTGGTAGAATTCGGCAGCGTC | – | – | – | – | – | 41 ± 2 | 23 ± 1
6 | ATCGATAGTCTCTAGACAGCATGTCCTAGCAAGCCAGAATTCGGCAGCGT (ssDNA) [DNA50] | 54 ± 1 | 39 ± 1 | 162 ± 5 | 32 ± 2 | – | – | –
